The EC50 is the concentration needed to bring the measured effect to its halfway point. For orientation: Kd means the constant that tells how readily two partners part at equilibrium. Broadly, the IC50 is the concentration needed to halve the response being measured.

Assay [1] addresses T1, CD47 on the red cell surface (Homo sapiens (Human), UniProt Q08722 19-323). Kind of assay: cell-based or functional assay.
Assay [2] has as its target CD47 on HL60 cells (UniProt Q08722 19-323, limits assumed). Description: cell-based or functional assay.
Assay [3] has as its target T2, human CD47 protein, His Tag (ACRObiosystems, Cat. No. CD7-H5227) (human, UniProt Q08722 19-139).
T2 construct: bought reagent; also called CD47-His; hCD47-His Tag; not shown: His tag
Description: ELISA, plate coated with CD47-His. On the technique in general: ELISA stands for enzyme-linked immunosorbent assay.

Assay [4] deals with T2, human CD47 protein, His Tag …. Kind of assay: Biacore SPR, 25 C, antibody captured on CM5 chip. (SPR reads the build-up and loss of mass on a sensor chip optically.)
The target of assay [5] is T1, CD47 on the red cell surface. Description: flow cytometry on fixed red cells, antibody 1 µg/mL. Background: Flow cytometry measures light scatter and fluorescence of single cells or particles in a stream.
Description: (§1) Anticoagulated blood was collected and well mixed with an equal amount of normal saline. The mixture was centrifuged at 2000 rpm/min for 5 min, and the supernatant was removed. […] In the first two washings, the mixture was centrifuged at 2000 rpm/min for 5 min, and in the last washing, the mixture was centrifuged at 2000 rpm/min for 10 min, and the supernatant was removed.
Assay [6] shares this target. Kind of assay: flow cytometry on fixed red cells, antibody 10 µg/mL.
Description: as §1
Assay [7] deals with T3, human CD47 protein on CHO-K1-CD47 cells (human, UniProt Q08722 19-323).
T3 construct: whole, on cells; also called CHO-K1 cells expressing human CD47 protein
Kind of assay: cell binding, CHO-K1-CD47 cells, high content imaging.
Description: A cell binding assay of anti-CD47 antibodies (chimeric or humanized) was performed based on the binding to a CHO-K1 cell line stably expressing CD47. CHO-K1-CD47 cells (CHO-K1 cells expressing human CD47 protein) were added to each well of a 96-well plate (Eppendorf, Cat. No. C030730.119) at 1.2×10⁴ cells per well and incubated with anti-CD47 antibodies (20 μg/mL, 1:4 dilution in PBS) at room temperature for 1-2 h. […] The cells were incubated at room temperature for 30 min. The cells were washed three times with PBS buffer. A nuclear dye Hoechst (Sigma, Cat. No. B2261) was diluted with PBS buffer at a dilution ratio of 1:500 and then added to each well at 100 μL/well for staining for 10 min. The cells were washed 3 times with PBS and analyzed using a high content screening system (manufacturer: PerkinElmer; model: Operetta).

Assay [8] deals with T2, human CD47 protein, His Tag …. Kind of assay: ELISA, CD47-His coated, competition with Human-SIRPα-mFc.
Description: The plate was let stand at 2-8° C. overnight. The wells were aspirated to remove the coating buffer and blocked with 100 μL/well of a blocking solution (PBS with 1% (w/v) bovine serum albumin (BSA, Sigma, Cat. No. B2064-100G)) by incubation at 37° C. for 1 h. The 96-well plate was washed with a washing buffer (PBS with 0.01% (w/v) Tween 20 (Sigma, Cat. No. P9416-100ML)). […] After the 96-well plate was washed with PBS washing buffer, anti-CD47 chimeric antibodies or anti-CD47 humanized antibodies (see Table 8 for chimeric antibodies, and see Table 9 for humanized antibodies) were added. 4-fold dilution was performed with PBS buffer from a starting concentration of 20 μg/mL, with 8 gradients obtained. The plate was incubated at room temperature for 1.5 h. […] After the 96-well plate was washed with PBS buffer, 100 μL/well of a substrate solution TMB (TIANGEN, Cat. No. PA107-01) was added, and the plate was incubated at room temperature for color development for 10 min. 100 μL/well of 1 M H₂SO₄ was added to stop the reaction. Colorimetric signals were generated and read at 450 nm using a multifunctional microplate reader (manufacturer: PerkinElmer; model: EnVision). Data were analyzed using GraphPad Prism5, and EC₅₀ was calculated.
For assay [9], the target named is T4, cynomolgus/rhesus macaque CD47 protein, His Tag (ACRObiosystems, Cat. No. CD7-C52H1) (cynomolgus monkey (cynomolgus/rhesus …, UniProt A0A2K5X523 19-141)).
T4 construct: bought reagent; also called Cynomolgus monkey CD47 protein
Description: Biacore SPR, 25 C, antibody captured on CM5 chip.

T4 sequence (A0A2K5X523 entry or part of it limits assumed): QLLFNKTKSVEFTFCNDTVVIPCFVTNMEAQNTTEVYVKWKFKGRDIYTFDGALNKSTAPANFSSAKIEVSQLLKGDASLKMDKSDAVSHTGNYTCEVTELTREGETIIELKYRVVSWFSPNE

B1: hz3F10-3.1 (antibody, human IgG4 S228P, kappa, V domains shown)
VH: QVQLVQSGAEVKKPGSSVKVSCKASGYTFSRYWIEWVRQAPGQGLEWMGEFIPGSDTTNYAQKFQGRVTITADISTSTAYMELSSLRSEDTAVYYCARGGLRRMDYWGQGTLVTVSS
VL: DIQMTQSPSSLSASVGDRVTITCRASSSVSSTYLHWYQQKPGKAPKLLIYTTSTLASGVPSRFSGSGSGTSYTLTISSLQPEDFATYYCQQFSDSTWTFGQGTKLEIKR
notes: humanized 3F10, full-length heavy and light chains
On to B1, for which the “red cell agglutination, lowest concentration causing it” value (“red cell agglutination” below) in assay [1] is 3.3 µg/mL. The “rate of phagocytosis, antibody 1 µg/mL” value in assay [2] was determined as 50.6%. Also, in [2], the “rate of phagocytosis, antibody 10 µg/mL” value came out at 58.7%. Besides, the EC50 in [3] was found to be 0.127 µg/mL; in assay [7], 1.12 µg/mL. The same molecule returned a Kd in assay [4] of 1.53 nM. Besides, the MFI in assay [5] is 6700 MFI; in assay [6], 41400 MFI. In assay [8], this molecule returned a half-maximal inhibitory concentration (IC50) of 1.68 µg/mL.

B2: hz3F10-4.2 (antibody, human IgG4 S228P, kappa, V domains shown)
VH: QVQLVQSGAEVKKPGSSVKVSCKASGYTFSRYWIEWVRQAPGQGLEWMGEFIPGSDTTNYAQKFQGRVTITAEISTNTAYMELSSLRSEDTAVYYCARGGLRRMDYWGQGTLVTVSS
VL: DIQMTQSPSSLSASVGDRVTITCRASSSVSSTYLHWYQQKPGKAPKLLIYTTSTLASGVPSRFSGSGSGTSYTLTISSLQPEDFATYYCQQFSESTWTFGQGTKLEIKR
notes: as for B1
For the molecule B2, the “red cell agglutination” value in assay [1] stood at 3.3 µg/mL. Further, the “rate of phagocytosis, antibody 1 µg/mL” value in assay [2] came out at 46.2%. In assay [2], the “rate of phagocytosis, antibody 10 µg/mL” value stood at 31.7%. In addition, the concentration for a half-maximal effect (EC50) in assay [3] turned out to be 0.181 µg/mL; in [7] it was 1.26 µg/mL. Further, the Kd in assay [4] is 1.34 nM; in [9], 1.86 nM. For the same molecule, the MFI in assay [5] was 4810 MFI; in assay [6], 45600 MFI. The concentration for half-maximal inhibition (IC50) in assay [8] was 1.74 µg/mL.

B3: hz3F10-3.2 (antibody, human IgG4 S228P, kappa, V domains shown)
VH: QVQLVQSGAEVKKPGSSVKVSCKASGYTFSRYWIEWVRQAPGQGLEWMGEFIPGSDTTNYAQKFQGRVTITAEISTNTAYMELSSLRSEDTAVYYCARGGLRRMDYWGQGTLVTVSS
VL: DIQMTQSPSSLSASVGDRVTITCRASSSVSSTYLHWYQQKPGKAPKLLIYTTSTLASGVPSRFSGSGSGTSYTLTISSLQPEDFATYYCQQFSDSTWTFGQGTKLEIKR
notes: as for B1
Turning to B3, the “red cell agglutination” value in [1] came to 3.3 µg/mL. In [2], the “rate of phagocytosis, antibody 1 µg/mL” value was 47%. Moreover, in assay [2], the “rate of phagocytosis, antibody 10 µg/mL” value was 37.1%. Besides, the results for the 50% effective concentration (EC50) in assay [3] and in [7] were 0.166 µg/mL and 1.2 µg/mL, respectively. In addition, the figures for the dissociation constant Kd in [4] and in assay [9] were 1.15 nM and 1.47 nM, respectively. Also, the figures for the MFI in assay [5] and in assay [6] were 5100 MFI and 45300 MFI, respectively. The molecule also showed an IC50 in assay [8] of 1.74 µg/mL.

B4: hz3F10-4.1 (antibody, human IgG4 S228P, kappa, V domains shown)
VH: QVQLVQSGAEVKKPGSSVKVSCKASGYTFSRYWIEWVRQAPGQGLEWMGEFIPGSDTTNYAQKFQGRVTITADISTSTAYMELSSLRSEDTAVYYCARGGLRRMDYWGQGTLVTVSS
VL: DIQMTQSPSSLSASVGDRVTITCRASSSVSSTYLHWYQQKPGKAPKLLIYTTSTLASGVPSRFSGSGSGTSYTLTISSLQPEDFATYYCQQFSESTWTFGQGTKLEIKR
notes: as for B1
In the case of B4, the “red cell agglutination” value in [1] came to 3.3 µg/mL. In addition, in [2], the “rate of phagocytosis, antibody 1 µg/mL” value was found to be 50.3%. For the same molecule, the “rate of phagocytosis, antibody 10 µg/mL” value in [2] amounted to 58.3%. The EC50 in assay [3] was determined as 0.115 µg/mL; in assay [7] it was 1.16 µg/mL. In addition, the dissociation constant Kd in assay [4] worked out at 1.42 nM; in [9] it was 1.62 nM. For the same molecule, the MFI is 5980 MFI in [5] and 41900 MFI in assay [6]. Moreover, in [8], the IC50 was 1.95 µg/mL.

B5: hz16E5-1.2 (antibody, human IgG4 S228P, kappa)
heavy: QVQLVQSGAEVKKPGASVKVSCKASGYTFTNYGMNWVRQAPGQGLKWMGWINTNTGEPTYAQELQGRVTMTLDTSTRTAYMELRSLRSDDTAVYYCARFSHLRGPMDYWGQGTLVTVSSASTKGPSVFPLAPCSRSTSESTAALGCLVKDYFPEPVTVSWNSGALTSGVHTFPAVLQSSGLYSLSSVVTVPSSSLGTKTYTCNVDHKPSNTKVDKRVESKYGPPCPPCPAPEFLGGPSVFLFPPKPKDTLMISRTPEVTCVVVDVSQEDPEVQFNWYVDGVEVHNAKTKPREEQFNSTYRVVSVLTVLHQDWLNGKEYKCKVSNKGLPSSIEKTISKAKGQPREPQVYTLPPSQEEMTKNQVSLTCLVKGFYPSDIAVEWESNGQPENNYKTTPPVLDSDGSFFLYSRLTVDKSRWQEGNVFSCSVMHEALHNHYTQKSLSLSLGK
light: DIQMTQSPSSLSASVGDRVTITCRSSQSLVHSNGYTYLHWYQQKPGKAPKLLIYKVSNRFSGVPSRFSGSGSGTDFTLTISSLQPEDFATYYCSQSTHVPPTFGQGTKLEIKRTVAAPSVFIFPPSDEQLKSGTASVVCLLNNFYPREAKVQWKVDNALQSGNSQESVTEQDSKDSTYSLSSTLTLSKADYEKHKVYACEVTHQGLSSPVTKSFNRGEC
notes: humanized 16E5, full-length heavy and light chains
As for B5, the “red cell agglutination” value in assay [1] came out at 3.3 µg/mL. The “rate of phagocytosis, antibody 1 µg/mL” value in [2] was found to be 5.1%. The “rate of phagocytosis, antibody 10 µg/mL” value in assay [2] was 17.8%. For the same molecule, the half-maximal effective concentration (EC50) in [3] is 0.16 µg/mL. Also, the Kd in assay [4] came out at 9.31 nM; in assay [9] it was 2.26 nM. Also, the values for the MFI in [5] and in [6] were 913 MFI and 4730 MFI, respectively. In addition, the half-inhibitory concentration (IC50) in [8] came out at 2.94 µg/mL.

B6: hz16E5-3.1 (antibody, human IgG4 S228P, kappa)
heavy: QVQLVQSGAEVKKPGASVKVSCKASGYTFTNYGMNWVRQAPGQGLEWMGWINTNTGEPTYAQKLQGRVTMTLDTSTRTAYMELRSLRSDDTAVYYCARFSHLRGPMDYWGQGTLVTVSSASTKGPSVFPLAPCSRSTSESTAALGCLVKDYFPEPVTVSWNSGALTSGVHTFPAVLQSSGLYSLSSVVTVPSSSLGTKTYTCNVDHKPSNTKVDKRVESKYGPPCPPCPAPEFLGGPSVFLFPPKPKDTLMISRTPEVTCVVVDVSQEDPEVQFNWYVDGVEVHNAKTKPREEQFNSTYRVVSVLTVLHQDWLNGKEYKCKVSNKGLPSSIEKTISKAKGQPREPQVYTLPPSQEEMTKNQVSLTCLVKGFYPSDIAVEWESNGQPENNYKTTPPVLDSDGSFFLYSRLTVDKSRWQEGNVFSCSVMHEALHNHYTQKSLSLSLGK
light: DAQMTQSPSSLSASVGDRVTITCRSSQSLVHSNGYTYLHWYQQKPGKAPKLLIYKVSNRFSGVPSRFSGSGSGTDFTLTISSLQPEDFATYYCSQSTHVPPTFGQGTKLEIKRTVAAPSVFIFPPSDEQLKSGTASVVCLLNNFYPREAKVQWKVDNALQSGNSQESVTEQDSKDSTYSLSSTLTLSKADYEKHKVYACEVTHQGLSSPVTKSFNRGEC
notes: as for B5
For B6, in assay [1], the “red cell agglutination” value was 3.3 µg/mL. Besides, the “rate of phagocytosis, antibody 1 µg/mL” value in assay [2] came out at 6.37%. The “rate of phagocytosis, antibody 10 µg/mL” value in assay [2] was determined as 24.2%. Moreover, the half-maximal effective concentration (EC50) in assay [3] was 0.14 µg/mL; in [7], 5.88 µg/mL. The Kd in assay [4] was 6.28 nM; in assay [9], 3.28 nM. Moreover, the MFI in assay [5] turned out to be 945 MFI; in assay [6] it was 5140 MFI. Besides, in [8], the concentration for half-maximal inhibition (IC50) was determined as 15.2 µg/mL.

B7: hz16E5-3.2 (antibody, human IgG4 S228P, kappa)
heavy: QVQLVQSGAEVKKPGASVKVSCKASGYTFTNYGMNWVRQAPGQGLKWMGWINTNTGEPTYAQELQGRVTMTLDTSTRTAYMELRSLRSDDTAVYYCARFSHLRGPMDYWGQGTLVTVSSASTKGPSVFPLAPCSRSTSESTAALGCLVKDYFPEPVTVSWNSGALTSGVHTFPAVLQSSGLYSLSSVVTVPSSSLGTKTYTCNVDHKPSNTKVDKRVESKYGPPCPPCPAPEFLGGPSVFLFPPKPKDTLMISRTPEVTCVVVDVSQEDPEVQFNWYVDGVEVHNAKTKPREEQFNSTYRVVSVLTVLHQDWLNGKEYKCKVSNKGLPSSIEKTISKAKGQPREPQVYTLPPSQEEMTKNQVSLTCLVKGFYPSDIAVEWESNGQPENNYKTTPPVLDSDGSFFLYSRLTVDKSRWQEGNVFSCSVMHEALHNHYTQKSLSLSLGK
light: DAQMTQSPSSLSASVGDRVTITCRSSQSLVHSNGYTYLHWYQQKPGKAPKLLIYKVSNRFSGVPSRFSGSGSGTDFTLTISSLQPEDFATYYCSQSTHVPPTFGQGTKLEIKRTVAAPSVFIFPPSDEQLKSGTASVVCLLNNFYPREAKVQWKVDNALQSGNSQESVTEQDSKDSTYSLSSTLTLSKADYEKHKVYACEVTHQGLSSPVTKSFNRGEC
notes: as for B5
In the case of B7, the “red cell agglutination” value in assay [1] stood at 3.3 µg/mL. Also, the “rate of phagocytosis, antibody 1 µg/mL” value in [2] is 3.02%. For the same molecule, the “rate of phagocytosis, antibody 10 µg/mL” value in assay [2] is 2.03%. For the same molecule, in assay [3], the response was half-maximal at 0.215 µg/mL (EC50). Moreover, the figures for the equilibrium dissociation constant (Kd) in assay [4] and in assay [9] were 17.1 nM and 3.1 nM, respectively. Besides, the results for the MFI in [5] and in assay [6] were 860 MFI and 4200 MFI, respectively. The half-maximal inhibitory concentration (IC50) in [8] was found to be 2.05 µg/mL.

B8: hz16E5-1.3 (antibody, human IgG4 S228P, kappa)
heavy: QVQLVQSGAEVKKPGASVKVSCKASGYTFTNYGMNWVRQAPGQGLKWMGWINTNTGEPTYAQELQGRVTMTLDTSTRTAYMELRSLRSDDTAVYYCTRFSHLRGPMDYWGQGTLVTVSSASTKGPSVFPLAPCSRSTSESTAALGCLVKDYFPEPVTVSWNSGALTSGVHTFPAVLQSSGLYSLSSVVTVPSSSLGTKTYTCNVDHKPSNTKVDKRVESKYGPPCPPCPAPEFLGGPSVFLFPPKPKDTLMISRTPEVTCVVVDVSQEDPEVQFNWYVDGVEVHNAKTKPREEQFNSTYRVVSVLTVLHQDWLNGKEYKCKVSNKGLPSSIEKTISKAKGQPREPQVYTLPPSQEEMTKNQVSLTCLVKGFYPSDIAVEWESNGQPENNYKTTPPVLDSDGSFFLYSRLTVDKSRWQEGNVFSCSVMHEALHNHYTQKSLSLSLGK
light: DIQMTQSPSSLSASVGDRVTITCRSSQSLVHSNGYTYLHWYQQKPGKAPKLLIYKVSNRFSGVPSRFSGSGSGTDFTLTISSLQPEDFATYYCSQSTHVPPTFGQGTKLEIKRTVAAPSVFIFPPSDEQLKSGTASVVCLLNNFYPREAKVQWKVDNALQSGNSQESVTEQDSKDSTYSLSSTLTLSKADYEKHKVYACEVTHQGLSSPVTKSFNRGEC
notes: as for B5
With B8, in [1], the “red cell agglutination” value turned out to be 3.3 µg/mL. Also, the “rate of phagocytosis, antibody 1 µg/mL” value in [2] came out at 3.03%. For the same molecule, the “rate of phagocytosis, antibody 10 µg/mL” value in assay [2] came to 4.33%. For the same molecule, the EC50 in assay [3] was 0.138 µg/mL; in [7] it was 18.8 µg/mL. For the same molecule, the figures for the Kd in assay [4] and in [9] were 15.3 nM and 2.73 nM, respectively. Also, the values for the MFI in [5] and in assay [6] were 894 MFI and 4880 MFI, respectively. Besides, the IC50 in [8] came to 2.32 µg/mL.

B9: hz16E5-1.1 (antibody, human IgG4 S228P, kappa)
heavy: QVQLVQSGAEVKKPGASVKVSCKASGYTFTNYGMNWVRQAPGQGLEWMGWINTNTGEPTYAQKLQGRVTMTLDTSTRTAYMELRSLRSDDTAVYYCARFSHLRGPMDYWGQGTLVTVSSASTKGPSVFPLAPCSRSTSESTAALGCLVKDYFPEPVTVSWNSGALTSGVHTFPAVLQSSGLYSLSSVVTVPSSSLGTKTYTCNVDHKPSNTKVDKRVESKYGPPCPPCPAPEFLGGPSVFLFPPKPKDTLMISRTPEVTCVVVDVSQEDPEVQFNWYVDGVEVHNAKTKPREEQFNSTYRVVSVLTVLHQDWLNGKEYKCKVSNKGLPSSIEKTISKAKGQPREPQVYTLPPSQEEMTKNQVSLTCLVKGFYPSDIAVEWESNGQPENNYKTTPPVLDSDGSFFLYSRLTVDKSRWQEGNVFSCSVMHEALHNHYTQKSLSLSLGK
light: DIQMTQSPSSLSASVGDRVTITCRSSQSLVHSNGYTYLHWYQQKPGKAPKLLIYKVSNRFSGVPSRFSGSGSGTDFTLTISSLQPEDFATYYCSQSTHVPPTFGQGTKLEIKRTVAAPSVFIFPPSDEQLKSGTASVVCLLNNFYPREAKVQWKVDNALQSGNSQESVTEQDSKDSTYSLSSTLTLSKADYEKHKVYACEVTHQGLSSPVTKSFNRGEC
notes: as for B5
For B9, in [1], the “red cell agglutination” value was found to be 3.3 µg/mL. Further, the “rate of phagocytosis, antibody 1 µg/mL” value in assay [2] is 14.8%. For the same molecule, the “rate of phagocytosis, antibody 10 µg/mL” value in assay [2] came out at 4.02%. For the same molecule, the EC50 in assay [3] came to 0.306 µg/mL; in assay [7] it was 3.87 µg/mL. In addition, the dissociation constant (Kd) in assay [4] is 18.9 nM; in [9] it was 4.77 nM. Besides, the MFI in assay [5] was determined as 945 MFI; in [6] it was 6460 MFI.

B10: hz14A9-2.4 (antibody, human IgG4 S228P, kappa, V domains shown)
VH: QVQLVQSGAEVKKPGASVKVSCKVSGFNIEDDYIEWVRQAPGQGLEWMGRIDPANDKTKYAQKFQGRVTMTGDTSTNTVYMELSSLRSEDTAVYYCTRPGLRRYYSMDYWGQGTLVTVSS
VL: DIQMTQSPSSLSASVGDRVTITCKASENVVSYVSWYQQKPGKAPKLLIYGASNRYTGVPSRFIGSGSSTDFTLTISSLQPEDFATYYCGQSYSYPLTFGQGTKLEIKR
notes: humanized 14A9, full-length heavy and light chains
B10: the “rate of phagocytosis, antibody 1 µg/mL” value in [2] worked out at 81.7%. Besides, the “rate of phagocytosis, antibody 10 µg/mL” value in assay [2] turned out to be 81.7%. Moreover, the values for the EC50 in assay [3] and in assay [7] were 0.339 µg/mL and 0.471 µg/mL, respectively. In addition, the Kd in [4] is 8.55 nM; in assay [9], 2 nM. Also, the MFI in assay [5] is 5240 MFI; in assay [6], 15000 MFI. For the same molecule, the IC50 in [8] came to 0.621 µg/mL.
